Variants at the floor of the assay were thinned out.
B1: TPR 5TU (parent)
chain: GGAUCUUCUCGAUCUAACAAAAAAGACAAAUCUGCCACAAAGCUUGAGAGCAUCUUCGGAUGCAGAGGCGGCAGCCUUCGGUGGCGCGAUAGCGCCAACGUUCUCAACUAUGACACGCAAAACGCGUGCUCCGUUGAAUGGAGUUUAUCAUG

Variants of: B1
Experiment: polymerase ribozyme fitness, log enrichment relative to wild type (log ratio); higher = more active; in vitro selection for triplet polymerase activity
Summary of the method: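 A single round of triplicate in vitro selection, including frozen incubation at −7 °C, was applied to PCR-built, transcribed mutant libraries of each subunit of a heterodimeric triplet polymerase ribozyme. Illumina sequencing of input and output libraries retained genotypes with ≥10 input reads and ≥1 read per output. Fitness is the base-2 logarithm of genotype enrichment divided by wild-type enrichment, from inverse-variance-weighted replicate averages.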

Variant | polymerase ribozyme fitness (log ratio)
A39C U53A G86C C105A A119U | ≤ -4.2
A39G C75U C85U A137G | -3.67
A39G A52C C54G C85U C125U G126U A147C | ≤ -4.2
A39C G88C A97G C114G | ≤ -4.2
A39G A91G A137G | ≤ -4.2
A39G C54A A91G G94A | ≤ -4.2
A39G G88A A142U | ≤ -4.2
C38U G83U C123U U148C | -2.21
C38U U61A A106C G141A | -3.01
C38U U45A G92C | -4.13
C38U G136U | -2.3
C38U G92A U146A | -2.92
A39G U45A A49U U61A C75U G83U C129G U144G | ≤ -4.2
A39C U55G G81C A121U | -2.31
A39G U55G G84A U135G | ≤ -4.2
A39C G65C G83C G143A A150U | ≤ -4.2
A39G G58U U82C C108A U146A A150C | ≤ -4.2
A39G G42A | -3.64
A39G G80A G126U A138G | ≤ -4.2
A39G G62A G94A A120U G143U | ≤ -4.2
C38U G83A G100A C129G | ≤ -4.2

Variant | polymerase ribozyme fitness (log ratio)
A39C A60G C87U A147C | -3.78
A39G A137G | -3.57
A39G G48A C51U U56C G59U A150C | ≤ -4.2
A39C U82G G83C G133C | ≤ -4.2
A39C C54A G65C C93A G124U A138C | ≤ -4.2
A39C G58A G59C | -1.49
A39C A52G | -2.32
C38U G140U | -2.77
C38U U44A A47U G67C C69U G84A | ≤ -4.2
C38U G83U C149G A150C | ≤ -4.2
C38U U53G C96G | -1.73
C38U U78C C95U | -0.556
A39G C118U | -1.27
A39C C63A A64U G84A C93G C116G | ≤ -4.2
A39C U55A C118U | -2.2
C38U U56A A147C | -0.21
C38U U55G G84C A98U | -1
A39C C85U C149U | -2.98
A39G A41G A49G G83C U145A | -3.94
C38U U90G C95A | ≤ -4.2
A39C A40C A49C | ≤ -4.2

Variant | polymerase ribozyme fitness (log ratio)
A39C G71C U78A C95U A122G | ≤ -4.2
A39C G42C C76A U144G | ≤ -4.2
A39G G83A U101A | ≤ -4.2
A39G G59C U104A | -3.12
A39C G62A A66U U134G G143A | ≤ -4.2
A39G C87U A89G G126A C132U | ≤ -4.2
A39G G42A G88C | ≤ -4.2
A39G C57G C105G A147U | -3.4
A39C C54A G81A | -3.05
A39G U55A G71A G92C C96U C131U C149A | ≤ -4.2
A39G C57A C87U | -1.73
C38U G86A U148C | -3.22
A39C G68A G80A C118U G128U | ≤ -4.2
A39C G143U | -4.15
A39C C118G | -2.92
C38U U82C C85U U90G C99U C105U C108G A120G | ≤ -4.2
A39C G88U A97G A122G | ≤ -4.2
A39C A64C C93U | ≤ -4.2
A39C U53A G62C U144A | ≤ -4.2
C38U G86U C118U | -2.07
A39C C96G A137U | ≤ -4.2

Variant | polymerase ribozyme fitness (log ratio)
C38U G92U C95G A106U | ≤ -4.2
C38U U55C A64U G94A C103A C125U | ≤ -4.2
A39C A91U G94A G133C A142U U145A U148A | ≤ -4.2
A39C G84A U144A | -2.69
C38U U61G G92U C116G G140A U144C | ≤ -4.2
A39C U145C | -1.66
A39C G81C C85U C116A G141C | ≤ -4.2
A39G C99A | -3.78
A39C U44G C75U C95U A119U G128U | ≤ -4.2
A39G A47C C123U A150G G152A | -3.23
C38U U56A G70C A91U U104A A107C U145A | ≤ -4.2
A39G U53A G58C C72G C95G C103G | ≤ -4.2
A39G C57A C99G | -3.15
A39C G59U C76G U146G | ≤ -4.2
A39C U53C U135C | -3.94
A39G C103G G126U | ≤ -4.2
A39G G48A C54A G88A C125U U134G U145C | ≤ -4.2
C38U U45A G68C U102G A138G | ≤ -4.2
A39G G88C A91U G136U | ≤ -4.2
C38U U56A A60U C95A | -1.13
A39C G92U C95A G112A U145G | ≤ -4.2

— the RNAGym collection of RNA variant scans (doi:10.1073/pnas.2313332121)
